Reference: patent US12269859B2, “Synthetic immune receptors and methods of use thereof” (Angeles Therapeutics, Inc., priority 2016, dated 2025)

Tested on: target antigen-expressing cell line
Assay: Jurkat NFAT-GFP assay, coculture with target cell lines expressing the respective target antigen (summary Table 10A)
Assay type: cell-based, human
Parameters: key: The signs +/−, +, 2+ etc. after the name of the cell lines indicate the relative degree of positivity on the Jurkat-NFAT-GFP assay as measured by the % GFP positive cells; +: relative degree of positivity on the Jurkat-NFAT-GFP assay as measured by the % GFP positive cells; 2+: relative degree of positivity on the Jurkat-NFAT-GFP assay as measured by the % GFP positive cells
Details: relative % GFP positive cells; for NFAT-GFP ASSAY Positive Cell lines: RAJI: SIR-expressing Jurkat-NFAT-GFP cells cocultured with RAJI
Method: (B) Induction of NFAT promoter driven GFP expression. The control vector- and SIR-expressing Jurkat-NFAT-GFP cocultured for 4-24 hours with the target antigen-expressing cell line (described above) and their ability to bind to the target antigen is assayed by measuring induction of GFP expression using Flow Cytometry. Cellular supernatant is collected and assayed for the induction of cytokines (e.g., IL2).
Jurkat NFAT-GFP Assay For Synthetic Immune Receptors. The Jurkat-NFAT-GFP cells are engineered in such a way that the IL-2 promoter, which carries NFAT binding sites, is cloned upstream of the GFP gene. These cells have been used to study signaling via TCR and CAR. The different SIRs were stably expressed in Jurkat NFAT-GFP cells by lentiviral mediated gene transfer, followed by selection with puromycin. The SIR-expressing Jurkat-NFAT-GFP cells were cocultured with the target cells at E:T ratio of approximately 1:2 for approximately 4 hours to 18 hours. When the interaction between SIRs and their target antigen results in activation of the NFAT pathway, GFP expression is induced.
Induction of GFP expression by coculturing of Jurkat-NFAT-GFP cells expressing different SIR constructs and the different target cells was studied essentially as described previously (Wu, Roybal, Puchner, Onuffer, & Lim, 2015). GFP expression was monitored by FACS analysis. A few representative examples of this assay are shown in the FIG. 13A-B. In panel A, control Jurkat-NFAT-GFP cells or those expressing SIRs targeting CD19 (clone ID 051716-I08), MPL (Clone ID: 040716-A07) and BCMA (Clone ID: 011116-A07) were incubated with RAJI (top), HEL (middle) or U266 (bottom) cells, respectively. […] In panel B, Jurkat cells expressing SIR targeting CDH6 (Clone ID: 051716-J05), CD276 (Clone ID: 050516-Q06) and Her2/neu (Clone ID: 050516-I03) were incubated with SKOV3 (top) and […] (middle and bottom) cells, respectively. […] The Jurkat-NFAT-GFP cells were engineered to express different SIRs targeting other antigens and the experiment repeated upon coculture with the target cells expressing their respective target antigen. The Jurkat-NFAT-GFP (parental) cells were used as control. The names of different SIRs, their SEQ ID NOs, component antigen binding domains and TCR chains can be determined by reference to Tables 7A-7H. A SIR is considered positive in the assay in case the SIR expressing Jurkat-NFAT-GFP cells show greater % GFP positive cells when cultured with the target cell line as compared to parental Jurkat-NFAT-GFP cells. […] The signs +/−, +, 2+ etc. after the name of the cell lines indicate the relative degree of positivity on the Jurkat-NFAT-GFP assay as measured by the % GFP positive cells after culture of the SIR expressing Jurkat-NFAT-GFP cells with that cell line. […] In addition, great diversity of response against the same target cell line is observed with Jurkat cells expressing SIRs containing different antigen binding domains targeting the same antigen (e.g., SIRs having antigen binding domains derived form different CD19 antibodies) even when the SIRs share the same TCR chains and linkers. Finally, Jurkat cells expressing SIRs targeting different antigens (e.g. CD19 vs CD20) show a diversitiy of response when exposed to the same target cell line. Thus, a diverse immune response can be generated against a single target cell by combining SIRs with different TCR chains, linkers, antigen binding domains and target specificity. Table 10A also summarizes the results of GLuc based T cell cytotoxicity assay observed with different SIRs when exposed to their target cell lines. […]

B1: 012617-N02 (protein)
chain: MALPVTALLLPLALLLHAARPLEGKPIPNPLLGLDSTGSGEDLKNVFPPEVAVFEPSKAEIAHTQKATLVCLATGFYPDHVELSWWVNGKEVHSGVCTDPQPLKEQPALNDSRYCLSSRLRVSATFWQNPRNHFRCQVQFYGLSENDEWTQDRAKPVTQIVSAEAWGRADCGITSASYHQGVLSATILYEILLGKATLYAVLVSALVLMAMVKRKDSRGRAKRSGSGATNFSLLKQAGDVEENPGPTSMALPVTALLLPLALLLHAARPQSVVTQPPSVSAAPGQKVTISCSGSSSNIGNNYVSWYQQLPGTAPKLLIYDNNKRPSGIPDRFSGSKSGTSATLGITGLQTGDEADYYCGTWDGSLYTMLFGGGTKLTVLGGGGSGGGGSGGGGSEVQLVESGGGLVKPGGSLRLSCAASGFTFSNAWMSWVRQAPGKGLEWVGFIRSKAYGGTTEYAASVKGRFTISRDDSKSIAYLQMNNLKTEDTAVYYCARDGLYSSSWYDSDYWGQGTLVTVSSTREQKLISEEDGSGIQNPDPAVYQLRDSKSSDKSVCLFTDFDSQTNVSQSKDSDVYITDKCVLDMRSMDFKSNSAVAWSNKSDFACANAFNNSIIPEDTFFPSSDVPCDVKLVEKSFETDTNLNFQNLSVIGFRILLLKVAGFNLLMTLRLWSSRAKRSGSGVKQTLNFDLLKLAGDVESNPGPSRGHMTEYKPTVRLATRDDVPRAVRTLAAAFADYPATRHTVDPDRHIERVTELQELFLTRVGLDIGKVWVADDGAAVAVWTTPESVEAGAVFAEIGPRMAELSGSRLAAQQQMEGLLAPHRPKEPAWFLATVGVSPDHQGKGLGSAVVLPGVEAAERAGVPAFLETSAPRNLPFYERLGFTVTADVEVPEGPRTWCMTRKPGA
With B1 the “NFAT-GFP ASSAY Positive Cell lines: HepG2” value (SIR-expressing Jurkat-NFAT-GFP cells cocultured with HepG2) was “HepG2 (+/−)”.

B2: 072516-B05 (protein)
chain: MALPVTALLLPLALLLHAARPEIVMTQSPATLSLSPGERATLSCRASQDISKYLNWYQQKPGQAPRLLIYHTSRLHSGIPARFSGSGSGTDYTLTISSLQPEDFAVYFCQQGNTLPYTFGQGTKLEIKLEGKPIPNPLLGLDSTGSGEDLKNVFPPEVAVFEPSKAEIAHTQKATLVCLATGFYPDHVELSWWVNGKEVHSGVCTDPQPLKEQPALNDSRYCLSSRLRVSATFWQNPRNHFRCQVQFYGLSENDEWTQDRAKPVTQIVSAEAWGRADCGITSASYHQGVLSATILYEILLGKATLYAVLVSALVLMAMVKRKDSRGRAKRSGSGATNFSLLKQAGDVEENPGPTSMDWIWRILFLVGAATGAHSFEQVQLQESGPGLVKPSETLSLTCTVSGVSLPDYGVSWIRQPPGKGLEWIGVIWGSETTYYNSSLKSRVTISKDNSKNQVSLKLSSVTAADTAVYYCAKHYYYGGSYAMDYWGQGTLVTVSSTREQKLISEEDGSGIQNPDPAVYQLRDSKSSDKSVCLFTDFDSQTNVSQSKDSDVYITDKCVLDMRSMDFKSNSAVAWSNKSDFACANAFNNSIIPEDTFFPSSDVPCDVKLVEKSFETDTNLNFQNLSVIGFRILLLKVAGFNLLMTLRLWSSRAKRSGSGVKQTLNFDLLKLAGDVESNPGPSRGHMTEYKPTVRLATRDDVPRAVRTLAAAFADYPATRHTVDPDRHIERVTELQELFLTRVGLDIGKVWVADDGAAVAVWTTPESVEAGAVFAEIGPRMAELSGSRLAAQQQMEGLLAPHRPKEPAWFLATVGVSPDHQGKGLGSAVVLPGVEAAERAGVPAFLETSAPRNLPFYERLGFTVTADVEVPEGPRTWCMTRKPGA
modifications: Synthetic Immune Receptor (SIR)
For B2, the “NFAT-GFP ASSAY Positive Cell lines: RAJI” value was “RAJI(+/−)”.

B3: 101216-H03 (protein)
chain: MALPVTALLLPLALLLHAARPEIVMTQSPATLSLSPGERATLSCRASQDISKYLNWYQQKPGQAPRLLIYHTSRLHSGIPARFSGSGSGTDYTLTISSLQPEDFAVYFCQQGNTLPYTFGQGTKLEIKLEGKPIPNPLLGLDSTGSGEDLKNVFPPEVAVFEPSKAEIAHTQKATLVCLATGFYPDHVELSWWVNGKEVHSGVCTDPQPLKEQPALNDSRYCLSSRLRVSATFWQNPRNHFRCQVQFYGLSENDEWTQDRAKPVTQIVSAEAWGRADCGITSASYHQGVLSATILYEILLGKATLYAVLVSALVLMAMVKRKDSRGRAKRSGSGATNFSLLKQAGDVEENPGPTSMDWIWRILFLVGAATGAHSFEDIQMTQTTSSLSASLGDRVTISCRASQDISKYLNWYQQKPDGTVKLLIYHTSRLHSGVPSRFSGSGSGTDYSLTISNLEQEDIATYFCQQGNTLPYTFGGGTKLEITTREQKLISEEDGSGIQNPDPAVYQLRDSKSSDKSVCLFTDFDSQTNVSQSKDSDVYITDKCVLDMRSMDFKSNSAVAWSNKSDFACANAFNNSIIPEDTFFPSSDVPCDVKLVEKSFETDTNLNFQNLSVIGFRILLLKVAGFNLLMTLRLWSSRAKRSGSGVKQTLNFDLLKLAGDVESNPGPSRGHMTEYKPTVRLATRDDVPRAVRTLAAAFADYPATRHTVDPDRHIERVTELQELFLTRVGLDIGKVWVADDGAAVAVWTTPESVEAGAVFAEIGPRMAELSGSRLAAQQQMEGLLAPHRPKEPAWFLATVGVSPDHQGKGLGSAVVLPGVEAAERAGVPAFLETSAPRNLPFYERLGFTVTADVEVPEGPRTWCMTRKPGA
With B3 the “NFAT-GFP ASSAY Positive Cell lines: NALM6” value (SIR-expressing Jurkat-NFAT-GFP cells cocultured with NALM6) was “RAJI(2+), NALM6(2+)” and the “NFAT-GFP ASSAY Positive Cell lines: RAJI” value was “RAJI(2+), NALM6(2+)”.

B4: 091216-K03 (protein)
chain: MALPVTALLLPLALLLHAARPLEGKPIPNPLLGLDSTGSGEDLKNVFPPEVAVFEPSKAEIAHTQKATLVCLATGFYPDHVELSWWVNGKEVHSGVCTDPQPLKEQPALNDSRYCLSSRLRVSATFWQNPRNHFRCQVQFYGLSENDEWTQDRAKPVTQIVSAEAWGRADCGITSASYHQGVLSATILYEILLGKATLYAVLVSALVLMAMVKRKDSRGRAKRSGSGATNFSLLKQAGDVEENPGPTSTMALPVTALLLPLALLLHAARPEIVMTQSPATLSLSPGERATLSCRASQDISKYLNWYQQKPGQAPRLLIYHTSRLHSGIPARFSGSGSGTDYTLTISSLQPEDFAVYFCQQGNTLPYTFGQGTKLEIKGGGGSGGGGSGGGGSQVQLQESGPGLVKPSETLSLTCTVSGVSLPDYGVSWIRQPPGKGLEWIGVIWGSETTYYNSSLKSRVTISKDNSKNQVSLKLSSVTAADTAVYYCAKHYYYGGSYAMDYWGQGTLVTVSSTREQKLISEEDGSGIQNPDPAVYQLRDSKSSDKSVCLFTDFDSQTNVSQSKDSDVYITDKCVLDMRSMDFKSNSAVAWSNKSDFACANAFNNSIIPEDTFFPSSDVPCDVKLVEKSFETDTNLNFQNLSVIGFRILLLKVAGFNLLMTLRLWSSRAKRSGSGVKQTLNFDLLKLAGDVESNPGPSRGHMTEYKPTVRLATRDDVPRAVRTLAAAFADYPATRHTVDPDRHIERVTELQELFLTRVGLDIGKVWVADDGAAVAVWTTPESVEAGAVFAEIGPRMAELSGSRLAAQQQMEGLLAPHRPKEPAWFLATVGVSPDHQGKGLGSAVVLPGVEAAERAGVPAFLETSAPRNLPFYERLGFTVTADVEVPEGPRTWCMTRKPGA
modifications: Synthetic Immune Receptor (SIR)
In the case of B4, the “NFAT-GFP ASSAY Positive Cell lines: RAJI” value is reported as “RAJI (+/−)”.
